Source: US20180142018A1 (NOVIMMUNE, published 2018)

T1: human CD19 (human, UniProt P15391 20-556)
T1 construct: whole, on cells; also called huCD19
T1 sequence (looked up): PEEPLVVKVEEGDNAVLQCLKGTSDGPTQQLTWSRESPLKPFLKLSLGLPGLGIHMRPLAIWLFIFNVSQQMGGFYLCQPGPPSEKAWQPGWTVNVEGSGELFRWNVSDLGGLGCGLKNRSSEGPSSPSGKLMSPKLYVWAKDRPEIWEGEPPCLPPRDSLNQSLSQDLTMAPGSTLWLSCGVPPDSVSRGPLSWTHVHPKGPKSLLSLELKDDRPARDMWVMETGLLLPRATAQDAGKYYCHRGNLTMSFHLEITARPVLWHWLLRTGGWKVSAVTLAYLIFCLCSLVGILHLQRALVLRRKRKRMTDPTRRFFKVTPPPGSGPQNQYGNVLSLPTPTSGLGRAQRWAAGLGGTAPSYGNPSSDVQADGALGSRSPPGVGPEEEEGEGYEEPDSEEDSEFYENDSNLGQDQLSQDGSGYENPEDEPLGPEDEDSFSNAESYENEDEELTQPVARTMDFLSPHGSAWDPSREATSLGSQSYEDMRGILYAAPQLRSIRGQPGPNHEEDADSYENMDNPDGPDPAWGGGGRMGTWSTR

T2: cynomolgus CD19 (cynomolgus monkey, UniProt A0A2K5W8L9 20-557)
T2 construct: whole, on cells; also called cynoCD19; cynomolgus monkey CD19
T2 sequence: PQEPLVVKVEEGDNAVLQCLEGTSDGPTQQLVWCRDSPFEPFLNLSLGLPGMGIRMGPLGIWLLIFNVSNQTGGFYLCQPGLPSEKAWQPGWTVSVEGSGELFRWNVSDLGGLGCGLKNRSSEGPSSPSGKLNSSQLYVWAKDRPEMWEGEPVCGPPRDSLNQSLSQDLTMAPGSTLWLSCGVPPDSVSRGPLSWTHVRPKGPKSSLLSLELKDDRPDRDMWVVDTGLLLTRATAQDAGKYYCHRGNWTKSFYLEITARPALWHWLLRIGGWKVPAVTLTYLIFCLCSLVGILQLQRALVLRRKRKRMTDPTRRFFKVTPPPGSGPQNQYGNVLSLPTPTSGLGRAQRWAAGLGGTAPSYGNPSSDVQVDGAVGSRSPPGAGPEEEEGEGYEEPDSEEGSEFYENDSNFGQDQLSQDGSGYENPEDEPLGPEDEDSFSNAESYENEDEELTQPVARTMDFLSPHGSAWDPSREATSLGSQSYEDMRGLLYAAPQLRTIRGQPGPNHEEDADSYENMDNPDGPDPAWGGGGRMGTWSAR


Tests used:
human CD19 [1] = biological target: T1, human CD19; experiment: FACS on human PBMC gated on CD20+ B lymphocytes, 30 and 3 µg/mL
Description: (§1) The ability of various anti-CD19 antibodies of the disclosure to bind various peripheral blood mononuclear cells (PBMC). Human and cynomolgus PBMC from frozen aliquots in citrate buffer were tested. […] The PBMC were labelled with anti-CD20-PE monoclonal antibody (mAb), anti-CD14-FITC mAb, and anti-CD3-PerCP mAb cross-reactive both to human and cynomolgus species. Cell surface bound hIgG1 were detected with a mouse anti-human IgG Fc-APC mAb. FACS gating was performed with the anti-CD20 mAb for the B lymphocyte population, with the anti-CD3 for the T lymphocyte population and with anti-CD14 for the monocyte population.

cynomolgus CD19 = biological target: T2, cynomolgus CD19; experiment: FACS on PBMC CD20+ B lymphocytes; human over cynomolgus, told of the group of anti-CD19 antibodies
Description: as §1

human CD19 [2] = biological target: T1, human CD19; experiment: FACS on human B lymphocyte cell lines (Raji, Ramos, Nalm6, Su-DHL6, Su-DHL4, Mec2); binding lost on CD19-silenced Raji siRNA
Description: The ability of various anti-CD19 antibodies of the disclosure to bind various human B lymphocyte cell lines was evaluated. In particular, the human IgG1 5F5, 7F11, 9G8, F6, 7F1, and 10D8 anti-CD19 antibodies were evaluated for their abilities to bind (i) six human B lymphocyte cell lines: Raji, Ramos, Nalm6, Su-DHL6, Su-DHL4, and Mec2, (ii) a CD19 silenced B cell line: Raji siRNA; and a negative cell line (Jurkat). All incubations were prepared in FACS buffer (PBS, BSA 2%) at 4° C. Fc receptors on B cells were blocked with 10% mouse serum. Four doses of hIgG1 were tested: 10, 1, 0.1 and 0.01 μg/mL. Cell surface bound hIgG1 were detected with a mouse anti-human IgG Fc-PE mAb.

binding result (human CD19 [1])	fold higher binding on human than on cynomolgus PBMC (cynomolgus CD19) [fold]	binding result (human CD19 [2])	Binder
binds	–	–	7F1 antibody (antibody, human IgG1, V domains shown, also called human IgG1 7F1 anti-CD19 antibody) VH: EVQLVQSGAEVKKPGESLKISCKGSGYSFTSYWIGWVRQMPGKGLEWMGIIYPGDSDTRYSPSFQGQVTISADKSISTAYLQWSSLKASDTAMYYCARGDYWTGFAYWGQGTLVTVSS VL: QSVLTQPPSVSAAPGQKVTISCSGSSSNIGNNYVSWYQQLPGTAPKLLIYDNNKRPSGIPDRFSGSKSGTSATLGITGLQTGDEADYYCGTWDLGWNSVFGGGTKLTVL
binds	≤ 10	–	7F11 antibody (antibody, human IgG1, V domains shown, also called human IgG1 7F11 anti-CD19 antibody) VH: EVQLVQSGAEVKKPGESLKISCKGSGYSFTSYWIGWVRQMPGKGLEWMGIIYPGDSDTRYSPSFQGQVTISADKSISTAYLQWSSLKASDTAMYYCARGVSGIYNLHGFDIWGQGTLVTVSS VL: DIQMTQSPSSLSASVGDRVTITCRASQSISSYLNWYQQKPGKAPKLLIYAASSLQSGVPSRFSGSGSGTDFTLTISSLQPEDFATYYCQQGMWDNPFTFGQGTKVEIK
binds	≤ 10	–	9G8 antibody (antibody, human IgG1, V domains shown, also called human IgG1 9G8 anti-CD19 antibody) VH: EVQLVQSGAEVKKPGESLKISCKGSGYSFTSYWIGWVRQMPGKGLEWMGIIYPGDSDTRYSPSFQGQVTISADKSISTAYLQWSSLKASDTAMYYCARGVSGIYNLHGFDIWGQGTLVTVSS VL: DIQMTQSPSSLSASVGDRVTITCRASQSISSYLNWYQQKPGKAPKLLIYAASSLQSGVPSRFSGSGSGTDFTLTISSLQPEDFATYYCQQGRFGSPFTFGQGTKVEIK
–	≤ 10	binds	5F5 antibody (antibody, human IgG1, V domains shown, also called human IgG1 5F5 anti-CD19 antibody) VH: EVQLVQSGAEVKKPGESLKISCKGSGYSFTSYWIGWVRQMPGKGLEWMGIIYPGDSDTRYSPSFQGQVTISADKSISTAYLQWSSLKASDTAMYYCARGISGIYNLHGFDIWGQGTLVTVSS VL: DIQMTQSPSSLSASVGDRVTITCRASQSISSYLNWYQQKPGKAPKLLIYAASSLQSGVPSRFSGSGSGTDFTLTISSLQPEDFATYYCQQASLDSPLTFGQGTKVEIK
binds	–	–	10D8 antibody (antibody, human IgG1, V domains shown, also called human IgG1 10D8 anti-CD19 antibody) VH: QVQLVQSGAEVKKPGSSVKVSCKASGGTFSSYAISWVRQAPGQGLEWMGGIIPIFGTANYAQKFQGRVTITADESTSTAYMELSSLRSEDTAVYYCARDRGYDYVWGSYRYGAFDIWGQGTLVTVSS VL: QSALTQPASVSGSPGQSITISCTGTSSDVGGYNYVSWYQQHPGKAPKLMIYEVSNRPSGVSNRFSGSKSGNTASLTISGLQAEDEADYYCSSYDVWVPHMVFGGGTKLTVL
binds	≤ 10	–	F6 antibody (antibody, human IgG1, V domains shown, also called human IgG1 F6 anti-CD19 antibody) VH: EVQLVQSGAEVKKPGESLKISCKGSGYSFTSYWIGWVRQMPGKGLEWMGIIYPGDSDTRYSPSFQGQVTISADKSISTAYLQWSSLKASDTAMYYCARVWYYDFWSGADAFDIWGQGTLVTVSS VL: EIVMTQSPATLSVSPGERATLSCRASQSVSSNLAWYQQKPGQAPRLLIYGASTRATGIPARFSGSGSGTEFTLTISSLQSEDFAVYYCQQGSLEAPQTFGQGTKVEIK
